According to patent US20060141451A1 (ORTHO MCNEIL PHARMACEUTICAL, published 2006):
No end group written: not given here.

How the values were obtained:
[1] = target: T1, guinea pig proteinase-activated receptor 4 (PAR-4) (guinea pig (Cavia porcellus)); test: cell-based or functional assay
T1 chain: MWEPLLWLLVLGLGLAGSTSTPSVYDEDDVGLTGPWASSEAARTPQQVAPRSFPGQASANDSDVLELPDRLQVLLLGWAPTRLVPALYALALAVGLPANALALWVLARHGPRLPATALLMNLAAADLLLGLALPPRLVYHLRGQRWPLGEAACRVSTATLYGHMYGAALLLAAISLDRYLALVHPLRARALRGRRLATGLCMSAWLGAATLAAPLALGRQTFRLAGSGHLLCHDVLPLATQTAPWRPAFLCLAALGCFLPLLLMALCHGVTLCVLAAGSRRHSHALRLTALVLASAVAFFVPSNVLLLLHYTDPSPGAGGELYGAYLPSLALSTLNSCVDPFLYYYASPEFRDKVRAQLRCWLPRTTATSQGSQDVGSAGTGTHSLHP

human PAR-4 = target: T2, human PAR-4 (human, UniProt Q96RI0 48-385); test: cell-based or functional assay
T2 sequence (looked up): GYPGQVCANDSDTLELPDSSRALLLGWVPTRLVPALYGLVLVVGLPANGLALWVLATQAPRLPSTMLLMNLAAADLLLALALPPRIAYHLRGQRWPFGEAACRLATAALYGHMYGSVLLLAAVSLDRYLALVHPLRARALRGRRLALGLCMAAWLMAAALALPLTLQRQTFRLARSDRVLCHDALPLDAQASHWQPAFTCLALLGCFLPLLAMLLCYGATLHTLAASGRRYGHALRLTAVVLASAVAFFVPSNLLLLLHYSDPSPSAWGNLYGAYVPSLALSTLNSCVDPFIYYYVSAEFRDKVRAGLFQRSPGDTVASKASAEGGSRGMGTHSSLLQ

- aggregation of guinea pig gel filtered platelets, EC50 [1]: 174 µM
- aggregation of human gel filtered platelets, EC50 (human PAR-4): 140 µM
Binder: SFPGQA-NH2 [guinea pig PAR-4 activating peptide SFPGQA-NH2]
